Values quoted from earlier work, collected in publication PMC8329052.

Molecular target: SARS-CoV-2 spike RBD RBD (SARS-CoV-2) (UniProt P0DTC2)

With “SBP1 (ACE2 alpha1 helix 23-mer peptide) 21-43 (from UniProt Q9BYF1)” as the substance, how does the Kd read?
The Kd was 47 nM.
